For one substance, Inhibition of phosphorylation of ERK1/2 in %, Inhibition of phosphorylation of PRLR in % and Inhibition of phosphorylation of STAT5 in % results are on record in US20130129739A1.

In the assay the target is human prolactin receptor (PRLR) on cells (human) (UniProt P16471). As to the kind of experiment: cell-based or functional assay.
Sequence of human prolactin receptor (PRLR) on cells (human) (P16471 25-622): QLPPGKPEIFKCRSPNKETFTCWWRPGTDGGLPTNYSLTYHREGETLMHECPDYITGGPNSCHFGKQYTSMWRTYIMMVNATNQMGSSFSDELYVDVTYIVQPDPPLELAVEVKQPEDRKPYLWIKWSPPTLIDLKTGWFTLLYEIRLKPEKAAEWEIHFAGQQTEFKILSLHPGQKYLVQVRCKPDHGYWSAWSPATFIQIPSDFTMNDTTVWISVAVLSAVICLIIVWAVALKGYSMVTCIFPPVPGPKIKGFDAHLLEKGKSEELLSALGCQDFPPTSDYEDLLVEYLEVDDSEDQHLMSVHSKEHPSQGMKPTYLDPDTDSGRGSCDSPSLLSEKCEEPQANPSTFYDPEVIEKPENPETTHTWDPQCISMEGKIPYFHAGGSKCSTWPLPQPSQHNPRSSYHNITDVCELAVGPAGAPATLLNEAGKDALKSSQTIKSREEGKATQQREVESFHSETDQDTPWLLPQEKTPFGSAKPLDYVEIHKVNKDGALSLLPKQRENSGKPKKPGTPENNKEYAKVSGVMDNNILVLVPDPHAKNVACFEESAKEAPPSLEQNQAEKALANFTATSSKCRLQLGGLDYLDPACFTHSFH

On to Negative control (Table 8), for which the Inhibition of phosphorylation of ERK1/2 in % at 7.5 µg/ml (ELISA, prolactin-treated T47D lysates) stood at 9%; the Inhibition of phosphorylation of PRLR in % at 7.5 µg/ml (ELISA, prolactin-treated T47D lysates) turned out to be 2%; the Inhibition of phosphorylation of STAT5 in % at 7.5 µg/ml (ELISA, prolactin-treated T47D lysates) stood at 0%.
